Measured values taken from US20260055369A1 (H LEE MOFFITT CANCER CENTER AND RESEARCH INSTITUTE, published 2026).

Assays:
[1] = target: T1, hNotch4 (EGF7-12, residues 276-511), biotinylated (human, UniProt Q99466 276-511, Biotinylated in vitro by BirA at the C-terminal BAP-tag (tag not in the letters).); experiment: SPR, KD of Delta^MAX against KD of WT DLL4
T1 construct: Immobilised on a streptavidin chip for SPR; also called Notch4 (7-12)
T1 sequence: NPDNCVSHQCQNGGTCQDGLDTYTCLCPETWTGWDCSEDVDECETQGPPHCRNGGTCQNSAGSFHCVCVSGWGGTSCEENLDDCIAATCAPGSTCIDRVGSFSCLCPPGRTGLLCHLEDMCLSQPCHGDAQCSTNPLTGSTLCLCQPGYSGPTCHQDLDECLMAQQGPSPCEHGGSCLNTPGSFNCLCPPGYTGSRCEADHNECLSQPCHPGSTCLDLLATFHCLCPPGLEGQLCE
Description: (§1) Surface plasmon resonance (SPR) was used to determine the binding affinity between Delta^MAX and the ligand-binding regions of Notch1-4. As a basis for comparison, a WT DLL4 construct, a DLL4.v2 construct, and a “DLL4.v1” construct containing the five E12 mutations (G28S, F107L, N118I, H194Y, and L206P) were also generated (FIG. 2A, 10). […] The rapid dissociation of WT DLL4 precluded kinetic fitting of the binding data.
(§2) Equilibrium dissociation constants were determined by surface plasmon resonance using a Biacore T200 instrument (GE Healthcare). Approximately 100 resonance units (RU) of biotinylated Notch extracellular fragments (Notch1 (EGF6-13), Notch2 (EGF6-13), Notch3 (EGF5-12), Notch4 (7-12), and mouse Notch1 (EGF6-13)) were immobilized on individual flow cells at 5 μl/min using a streptavidin-coated sensor chip (Series S Sensor chip SA, GE Healthcare). Three-fold serial dilutions of recombinant DLL4 proteins (N-EGF5) starting at 50 μM (WT DLL4), 18 μM (DLL4.v2), and 6 μM (DLL4.v1 and Delta^MAX) were flowed over the chip at 25° C. in SPR buffer (20 mM HEPES pH 7.4, 150 mM NaCl, 1 mM calcium chloride, 0.1% BSA supplemented with 0.005% surfactant P20). Association (“on-rate”) and dissociation (“off-rate”) phases were performed at 10 μl/min for 120 seconds and 300 seconds, respectively. […] Data collection rate was performed at 10 Hz, and curves were reference-subtracted from a flow cell containing 100 RU of a negative control non-related protein (biotinylated mouse RNF43 PA domain).

[2] = target: T2, hNotch2 (EGF6-13, residues 221-530), biotinylated (human, UniProt Q04721 221-530, Biotinylated in vitro by BirA at the C-terminal BAP-tag (tag not in the letters).); experiment: SPR, KD of Delta^MAX against KD of WT DLL4
T2 construct: Immobilised on a streptavidin chip for SPR
T2 sequence: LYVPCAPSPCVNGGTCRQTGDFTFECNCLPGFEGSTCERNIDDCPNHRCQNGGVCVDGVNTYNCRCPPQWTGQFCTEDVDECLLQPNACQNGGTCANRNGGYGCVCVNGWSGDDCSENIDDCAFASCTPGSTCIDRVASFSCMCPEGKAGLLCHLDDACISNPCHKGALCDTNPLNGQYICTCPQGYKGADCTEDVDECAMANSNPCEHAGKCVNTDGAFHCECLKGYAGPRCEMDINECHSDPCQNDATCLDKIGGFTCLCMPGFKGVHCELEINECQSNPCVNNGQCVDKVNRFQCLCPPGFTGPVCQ
Description: as §1, §2

[3] = target: T3, hNotch3 (EGF5-12, residues 197-505), biotinylated (human, UniProt Q9UM47 197-505, Biotinylated in vitro by BirA at the C-terminal BAP-tag (tag not in the letters).); experiment: SPR, KD of Delta^MAX against KD of WT DLL4
T3 construct: Immobilised on a streptavidin chip for SPR
T3 sequence: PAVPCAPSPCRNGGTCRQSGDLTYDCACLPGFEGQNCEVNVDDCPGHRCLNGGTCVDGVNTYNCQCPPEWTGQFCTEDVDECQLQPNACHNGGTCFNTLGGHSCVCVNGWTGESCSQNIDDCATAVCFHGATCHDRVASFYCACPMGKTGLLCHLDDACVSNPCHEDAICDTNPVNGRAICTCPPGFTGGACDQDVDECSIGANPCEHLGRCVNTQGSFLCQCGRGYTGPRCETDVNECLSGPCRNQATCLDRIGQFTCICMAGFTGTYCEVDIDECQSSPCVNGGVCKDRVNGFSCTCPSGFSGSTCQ
Description: as §1, §2

[4] = target: T4, mouse Notch1 (EGF6-13, residues 221-526), biotinylated (mouse, UniProt Q01705 221-526, Biotinylated in vitro by BirA at the C-terminal BAP-tag (tag not in the letters).); experiment: SPR steady-state binding isotherm, biotinylated mNotch1 (EGF6-13) on a streptavidin chip, DLL4 variant as analyte, response normalized to the maximum (100%)
T4 construct: Immobilised on a streptavidin chip for SPR; also called mNotch1 EGF6-13; mNotch1 (6-13)
T4 sequence: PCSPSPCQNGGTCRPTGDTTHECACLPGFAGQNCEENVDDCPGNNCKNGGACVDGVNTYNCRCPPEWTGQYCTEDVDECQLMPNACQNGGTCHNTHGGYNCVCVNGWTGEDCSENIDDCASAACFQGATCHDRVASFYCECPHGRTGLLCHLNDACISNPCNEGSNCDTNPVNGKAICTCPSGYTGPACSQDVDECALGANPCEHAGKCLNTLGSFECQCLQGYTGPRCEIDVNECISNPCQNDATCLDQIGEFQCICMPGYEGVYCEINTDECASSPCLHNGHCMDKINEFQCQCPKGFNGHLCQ
Text: Extended Data FIG. 5. Quantitation of mNotch1 binding to DLL4 variants, ligand adsorption, and Notch surface expression. a, SPR binding isotherms were fitted to a 1:1 binding model to determine the binding affinity between mNotch1 (6-13) and each DLL4 variant. b, Determination of plate adsorption for WT DLL4 and Delta^MAX by ELISA. Data represent mean values±s.d. of three biological replicates. c, Binding assay of WT DLL4 and Delta^MAX tetramers to Notch1 overexpressing CHO-K1 N1-Gal4 cells was measured by flow cytometry. Data represent mean values±s.d. of three biological replicates. d, The level of Notch1 expression on the surface of cell lines used in this study was determined by flow cytometry. Data represent mean values±s.d. of three biological replicates. e, Percentage of CD8⁺ T cells expressing Notch1 (upper graph) and Notch2 (bottom graph) on cell surface determined by flow cytometry after stimulation with K32-WT DLL4, K32-Delta^MAX, or K32 for 96 hours. Data represent mean values±s.e.m. of three biological replicates. Delta^MAX statistics are referred to WT DLL4. *P<0.05, ****P<0.0001 (Two-way ANOVA).
Equilibrium dissociation constants were determined by surface plasmon resonance using a Biacore T200 instrument (GE Healthcare). […]

B1: Delta^MAX (N-EGF5), non-biotinylated (ligand)
chain: SSVFQLQLQEFINERGVLASGRPCEPGCRTFFRVCLKHFQAVVSPGPCTFGTVSTPVLGTNSFAVRDDSSGGGRNPLQLPLNFTWPGTFSLIIEAWHAPGDDLRPEALPPDALISKFAIQGSLAVGQNWLLDEQTSTLTRLRYSYRVICSDNYYGDNCSRLCKKRNDYFGHYVCQPDGNPSCLPGWTGEYCQQPICLSGCHEQNGYCSKPAECLCRPGWQGRLCNECIPHPGCRHGTCSTPWQCLCDEGWGGLYCDQDLNYCTHHSPCKNGATCRNSGPRSYTCTCRPGYTGVDCELELSECDSNPCRNGGSCKDQEDGYHCLCPPGYYGLHCEHSTLSCADSPCFNGGSCRERNQGANYACECPPNFTGSNCEHHHHHHHH
notes: also called DLL4^MAX; soluble Delta^MAX
For B1, the “fold enhancement of affinity compared to WT DLL4” value (“fold enhancement of affinity” below) [1] was 532 fold, the “fold enhancement of affinity” value [2] was 670 fold and the “fold enhancement of affinity” value [3] was 591 fold. The “EC50 (read off the curve)” value [4] was roughly 20 nM.
